The target in data set [1] is T1, Bdp1 Δ355–372 (Saccharomyces cerevisiae, UniProt P46678 1-594, Δ355–372).
T1 construct: Same construct as m3 apart from the deletion; source: E. coli BL21 (DE3) pRARE, purified as the wild-type protein
T1 sequence (looked up): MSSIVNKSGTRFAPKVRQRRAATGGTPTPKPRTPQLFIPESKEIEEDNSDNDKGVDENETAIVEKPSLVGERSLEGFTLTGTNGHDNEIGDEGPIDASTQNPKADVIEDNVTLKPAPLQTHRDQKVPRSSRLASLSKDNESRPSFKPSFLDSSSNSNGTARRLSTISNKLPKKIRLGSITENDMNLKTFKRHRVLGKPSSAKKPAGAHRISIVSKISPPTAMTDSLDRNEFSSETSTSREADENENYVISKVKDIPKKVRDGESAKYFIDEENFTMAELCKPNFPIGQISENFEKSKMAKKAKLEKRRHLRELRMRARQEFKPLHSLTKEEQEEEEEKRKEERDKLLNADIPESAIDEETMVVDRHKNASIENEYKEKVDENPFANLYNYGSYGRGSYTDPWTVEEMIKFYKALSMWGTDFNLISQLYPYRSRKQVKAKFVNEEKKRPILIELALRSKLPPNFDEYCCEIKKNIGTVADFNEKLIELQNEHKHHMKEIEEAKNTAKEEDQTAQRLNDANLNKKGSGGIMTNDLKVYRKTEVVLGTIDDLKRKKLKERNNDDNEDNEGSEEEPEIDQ
Nature of the data set: cryo-EM structure; Pol III iOC (intermediate OC), about 8.5 Å (TFIIIB lobe 15-25 Å): assembly with Bdp1 Δ355–372 on the closed DNA scaffold, assembly buffer plus 60 mM KCl; map only, no model deposited. As to conditions: both partners purified.

The target of data set [2] is T2, Bdp1 (B double prime) (Saccharomyces cerevisiae, UniProt P46678 1-594).
T2 construct: Bdp1, S. cerevisiae, PCR amplified from genomic DNA; Cloned in pET21b(+) at SalI and NotI; The methods cite the purification of B''(138-594) only as the procedure followed; also called subunit of TFIIIB
T2 sequence: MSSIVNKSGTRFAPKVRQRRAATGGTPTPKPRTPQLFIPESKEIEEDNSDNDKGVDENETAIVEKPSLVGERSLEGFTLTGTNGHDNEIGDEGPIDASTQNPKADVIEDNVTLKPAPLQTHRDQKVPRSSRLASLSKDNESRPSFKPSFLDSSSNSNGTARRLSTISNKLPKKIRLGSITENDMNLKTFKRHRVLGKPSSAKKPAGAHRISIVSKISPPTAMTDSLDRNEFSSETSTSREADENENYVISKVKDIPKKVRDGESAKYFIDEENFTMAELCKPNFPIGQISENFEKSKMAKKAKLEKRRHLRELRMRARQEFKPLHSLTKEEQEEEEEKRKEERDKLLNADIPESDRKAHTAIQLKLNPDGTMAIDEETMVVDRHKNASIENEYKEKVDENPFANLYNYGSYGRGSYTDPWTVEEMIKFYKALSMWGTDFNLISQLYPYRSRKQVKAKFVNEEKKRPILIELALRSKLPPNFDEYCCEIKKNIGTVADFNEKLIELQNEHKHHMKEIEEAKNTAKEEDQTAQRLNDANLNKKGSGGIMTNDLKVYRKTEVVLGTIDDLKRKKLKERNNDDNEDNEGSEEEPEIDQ
Description: cryo-EM structure; Pol III OC, 4.1 Å (TFIIIB 4.7 Å with soft mask): same assembly on the OC scaffold with a 10-nt mismatched bubble. As to conditions: both partners purified.

Data set [3] concerns the target T3, RNA polymerase III (17 subunits, incl. C160, C82/C34/C31, C53);Brf1N-TBPc-Brf1C chimera;Bdp1 (Saccharomyces cerevisiae;Saccharomyces …, UniProt P04051;P22276;P32349;P25441;P07703;P36121;P32910;P17890;P35718;P20434;P20435;P28 …, |internal_change|). Description: cryo-EM; ITC; 4.1 Å; EMD-7530; PIC assembled at room temperature; assembly buffer not given in the material. The settings on record: protein: native;recombinant;recombinant; tags: TAP tag on C53 C terminus (TEV-cleaved, calmodulin eluted);C-terminal 6xHis;C-terminal 6xHis; copies: 1;1;1;1;1;1;1;1;1;1;1;1;1;1;1;1;1;1;1; label: biotin 5' on strand 3; mismatched bubble with RNA (strand 4, RNA written as printed); strands 2 and 3 both anneal to strand 1 (nick between them).

Data set [4] deals with T3, RNA polymerase III (17 subunits, incl. …). Description: cryo-EM; OC; 4.1 Å; EMD-7531; PIC assembled at room temperature; assembly buffer not given in the material. The settings on record: protein: native;recombinant;recombinant; tags: TAP tag on C53 C terminus (TEV-cleaved, calmodulin eluted);C-terminal 6xHis;C-terminal 6xHis; copies: 1;1;1;1;1;1;1;1;1;1;1;1;1;1;1;1;1;1;1; label: biotin 5' on strand 3; 10-nt mismatched bubble; strands 2 and 3 both anneal to strand 1 (nick between them).

Data set [5] shares this target. Nature of the data set: cryo-EM; nOC, spontaneously melted; 4.8 Å; EMD-7532; PIC assembled at room temperature; assembly buffer not given in the material. As to conditions: protein: native;recombinant;recombinant; tags: TAP tag on C53 C terminus (TEV-cleaved, calmodulin eluted);C-terminal 6xHis;C-terminal 6xHis; copies: 1;1;1;1;1;1;1;1;1;1;1;1;1;1;1;1;1;1;1; label: biotin 5' on strand 3; strand 1 fully paired; strands 2 and 3 both anneal to strand 1 (nick between them).

The target in data set [6] is RNA polymerase III (17 subunits, incl. C160, C82/C34/C31, C53);Brf1N-TBPc-Brf1C chimera;Bdp1 Δ355-372 (Saccharomyces cerevisiae;Saccharomyces …, UniProt P04051;P22276;P32349;P25441;P07703;P36121;P32910;P17890;P35718;P20434;P20435;P28 …, |internal_change|del355-372). Nature of the data set: cryo-EM; iOC, Brf1 ZR and C34 WH1 disordered; 8.5 Å; EMD-7534; PIC assembled at room temperature; assembly buffer not given in the material. The settings on record: protein: native;recombinant;recombinant; tags: TAP tag on C53 C terminus (TEV-cleaved, calmodulin eluted);C-terminal 6xHis;C-terminal 6xHis; copies: 1;1;1;1;1;1;1;1;1;1;1;1;1;1;1;1;1;1;1; label: biotin 5' on strand 3; strand 1 fully paired; strands 2 and 3 both anneal to strand 1 (nick between them).

Data set [7] addresses T3, RNA polymerase III (17 subunits, incl. …). Nature of the data set: cryo-EM; complex on EC scaffold, RNA not seen; 4.5 Å; EMD-7533; PIC assembled at room temperature; assembly buffer not given in the material. As to conditions: protein: native;recombinant;recombinant; tags: TAP tag on C53 C terminus (TEV-cleaved, calmodulin eluted);C-terminal 6xHis;C-terminal 6xHis; copies: 1;1;1;1;1;1;1;1;1;1;1;1;1;1;1;1;1;1;1; label: biotin 5' on strand 3; mismatched bubble +12 to +22 with RNA (strand 4); strands 2 and 3 both anneal to strand 1 (2-nt gap between them).

B1: chimera protein Brf1N-TBPc-Brf1C (other, Saccharomyces cerevisiae)
chain: MPVCKNCHGTEFERDLSNANNDLVCKACGVVSEDNPIVSEVTFGETSAGAAVVQGSFIGAGQSHAAFGGSSALESREATLNNARRKLRAVSYALHIPEYITDAAFQWYKLALANNFVQGRRSQNVIASCLYVACRKEKTHHMLIDFSSRLQVSVYSIGATFLKMVKKLHITELPLADPSLFIQHFAEKLDLADKKIKVVKDAVKLAQRMSKDWMFEGRRPAGIAGACILLACRMNNLRRTHTEIVAVSHVAEETLQQRLNEFKNTKAAKLSVQKFRENDVEDGEARPPSFVKNRKKERKIKDSLDKEEMFQTSEEALNKNPILTQVLGEQELSSKEVLFYLKQFSERRARVVERIKATNGIDGENIYHEGSENETRKRKLSEAMPWSGIVPTLQNIVATVTLGCRLDLKTVALHARNAEYNPKRFAAVIMRIREPKTTALIFASGKMVVTGAKSEDDSKLASRKYARIIQKIGFAAKFTDFKIQNIVGSCDVKFPIRLEGLAFSHGTFSSYEPELFPGLIYRMVKPKIVLLIFVSGKIVLTGAKQREEIYQAFEAIYPVLSEFRKMGSGSGSGSGSGSPRNLHLLPTTDTYLSKVSDDPDNLEDVDDEELNAHLLNEEASKLKERIWIGLNADFLLEQESKRLKQEADIATGNTSVKKKRTRRRNNTRSDEPTKTVDAAAAIGLMSDLQDKSGLHAALKAAEESGDFTTADSVKNMLQKASFSKKINYDAIDGLFR
notes: Brf1 (TFIIB-related factor), S. cerevisiae, N-terminal part up to residue 382 (residues 383-438 of Brf1 were replaced by TBPc); linker between Brf1 residue 382 and TBP residue 61; linker between TBP residue 240 and Brf1 residue 439; Brf1, S. cerevisiae, C-terminal part from residue 439 to the end of full-length Brf1; Cloned in pET21b(+) at SalI and NotI; The printed offset (632-649 in the chimera …)
Consider B1, for which the binding result in data set [1] and in data set [2] was “binds” throughout.

B2: TATA box-binding protein (TBP) core domain, the TBPc part of the chimera Brf1N-TBPc-Brf1C (domain or fragment, Saccharomyces cerevisiae, UniProt P13393 61-240, looked up)
chain: SGIVPTLQNIVATVTLGCRLDLKTVALHARNAEYNPKRFAAVIMRIREPKTTALIFASGKMVVTGAKSEDDSKLASRKYARIIQKIGFAAKFTDFKIQNIVGSCDVKFPIRLEGLAFSHGTFSSYEPELFPGLIYRMVKPKIVLLIFVSGKIVLTGAKQREEIYQAFEAIYPVLSEFRKM
notes: TBP, S. cerevisiae, core domain residues 61-240; In the assay TBPc stood inside the chain of the chimera m2, between Brf1 1-382 and Brf1 439-end; this molecule is made only for the rows of TBP with Brf1 and Bdp1; source: E. coli BL21 (DE3) pRARE, purified, as part of the chimera m2
For B2, the binding result in data set [2] is listed as “binds”.

B3: ITC scaffold with 6-mer RNA (mixed)
DNA 1: CAACTTGGCCATGGAGTCATTTTATCTTGTGTCACTTTTACAGAAAAAGTATTACTAATATATGTTGAAAAACTGGGGAATTCCATGGTCCGTA
DNA 2: TTTTCAACATATATTAGTAATACTTTTTCTGTATTTTTTTTTTTTTTTTAAATGACTCCATGGCCAAGTTG
DNA 3: TACGGACCATGGAATTCCCCAGT
?: ACAAGA
On to B3, for which, in data set [3], the binding result is recorded as “binds”.

B4: OC (open complex) scaffold (dsDNA)
DNA 1: CAACTTGGCCATGGAGTCATTTTATCTTGTGTCACTTTTACAGAAAAAGTATTACTAATATATGTTGAAAAACTGGGGAATTCCATGGTCCGTA
DNA 2: TTTTCAACATATATTAGTAATACTTTTTCTGTATTTTTTTTTTAAGATAAAATGACTCCATGGCCAAGTTG
DNA 3: TACGGACCATGGAATTCCCCAGT
Consider B4, for which, in data set [4], the binding result was “binds”.

B5: CC (closed complex) scaffold (dsDNA)
DNA 1: CAACTTGGCCATGGAGTCATTTTATCTTGTGTCACTTTTACAGAAAAAGTATTACTAATATATGTTGAAAAACTGGGGAATTCCATGGTCCGTA
DNA 2: TTTTCAACATATATTAGTAATACTTTTTCTGTAAAAGTGACACAAGATAAAATGACTCCATGGCCAAGTTG
DNA 3: TACGGACCATGGAATTCCCCAGT
With B5, the binding result in data set [5] and in data set [6] was “binds” each time.

B6: EC scaffold with 20-mer RNA (mixed)
DNA 1: ACGCCTTAACCAACTTGGCCATGGAGTCATTTTATCTTGTGTCACTTTTACAGAAAAAGTATTACTAATATATGTTGAAAAACTGGGGAATTCCATGGTCCGTA
DNA 2: TTCAACATATATTAGTAATACTTTTTCTGTAAAAGTGACACAAGATAAAAATTTTTTTTGTCCAAGTTGGTTAAGGCGT
DNA 3: TACGGACCATGGAATTCCCCAGT
RNA: UUUUUUUUUUUAGACUCCAU
B6: in data set [7], the binding result is “binds”.

B7: C34 subunit of Pol III (natural protein, Saccharomyces cerevisiae, UniProt P32910 1-317, looked up)
chain: MSGMIENGLQLSDNAKTLHSQMMSKGIGALFTQQELQKQMGIGSLTDLMSIVQELLDKNLIKLVKQNDELKFQGVLESEAQKKATMSAEEALVYSYIEASGREGIWSKTIKARTNLHQHVVLKCLKSLESQRYVKSVKSVKFPTRKIYMLYSLQPSVDITGGPWFTDGELDIEFINSLLTIVWRFISENTFPNGFKNFENGPKKNVFYAPNVKNYSTTQEILEFITAAQVANVELTPSNIRSLCEVLVYDDKLEKVTHDCYRVTLESILQMNQGEGEPEAGNKALEDEEEFSIFNYFKMFPASKHDKEVVYFDEWTI
notes: C34, subunit of the Pol III-specific heterotrimer C82/34/31, S. cerevisiae; WH1 residues 10-77, WH2 residues 78-158; Stood in the assay as a subunit of the whole Pol III; source: endogenous, purified from S. cerevisiae as a subunit of Pol III (TAP tag on C53)
With B7, in data set [2], the binding result is on record as “binds”.

The values above are taken from publication PMC6066478, “Structural visualization of RNA polymerase III transcription machineries” (Cell Discovery, 2018).
